test: soluble on expression in E. coli; label from the status in PepcDB or PDB records

Sequence	soluble on expression in E. coli
MAHHHHHHMKKLHQERGGNPMLAQQARRVLFATSITGQNIDARSIALLLNTAVYFGMESDARVVRECIDFCLKNDKFISLDIMPIVVTACATLQSRDAREVIELQAIKATRNARFLDAKGVTNVISAFSKTGINHEKLFGLLSMRVQTLARVGEFEAAHLVILANAFARLRFREQHVFSAIARRAMSLRERVTVNELVPLINAFSKAGLKDPKLSKRFAGKAMEYVDQMNAEQVALMFQAFAYFGIRYDQLFGVLTNRAVELIDEFNAQYISTTLASFQRIGINNPELFDNLAERALAVVQDHDAKDIALTVTALAHFGLKDEELFKRLASHAASIADQFDPVGLVNTIHAFARTFFLQEDMVVALSERCVYVCRHLDANQVRRLLWSLAKFQVKDPRILTPVFNRCLTLHQDFFSDPMGGEEIEEIFDVFGPSFCPPLYQLYMSRGNSV	not soluble
MFYKEENFKKTEIGEIPEDWEIVELKDVCKKIKAGGTPKTSVEEYYKNGTIPFVKIEDITNSNKYLTNTKIKITEEGLNNSNAWIVPKNSVLFAMYGSIGETAINKIEVATNQAILGIIPKDNILESEFLYYILAKNKNYYSKLGMQTTQKNLNAQIVKSFKIPLPPLEEQKQIAKILTKIDEGIEIIEKSINKLERIKKGLMHKLLTKGIGHSRFKKSEIGEIPEDWEVFEIKDIFEVKTGTTPSTKKSEYWENGEINWITPLDLSRLNEKIYIGSSERKVTKIALEKCNLNLIPKGSIIISTRAPVGYVAVLTVESTFNQGCKGLFQKNNDSVNTEFYAYYLKFKKNLLENLSGGSTFKELSKSMLENFKIPLPPLEEQKQIAKILSSVDKSIELKKQKKEKLQRMKKKIMELLLTGKVRVKT	soluble
LLRGLLASIEHGINRVLRLDSTALPRLARLSGHVIAVDCRDPSLKIFILPSDEGLLLAADWAADADCTLRAPASSLLRLALSKDKTAVLHGPDVELEGDSGVLLELTGILQDLELDWEHELSNWVGPVASQLFSSRVRSSGRWTRESFTSLSQNVADYLSEESRTLVGNHEAEARFAELDRIKLDLDRLEARFARLAHFLNT	not soluble
SPVSPAGSHKQQNFGLNNATQPKKSISFFATMKATSVKGYTGANQSRMAVSKTVLIPPELKTVEKPNPNIKTTQVFDINGTDVTPRPLYHPDPLTGTAKPSKLLTSQEGSLGSEFISSYSLYQNTINPSTLGQFTRSVLGSSTVSKSSVSASESIAEDLEEPSYKRERLTSFTDLQVIRAAPEKIVTKEDLEKNIEIILTETETLRFFDLPTVMVSVESEEAEKVTQRNKNYEVLCRNRLGNDLYVERMMQTFNGAPKNKDVQCDKIIMEDKGIMSTAWDLYDSYNAMELVSLSVKQSVVESSSKANVLPKDQDQRLPGSTTEKNSETSSLMDIENVILAKIHEDEEDHSDAILKSDKFHQDLFFMERVLMENIFQPKLAAYRQLPVLKEPEPEEPEDVLESAKHEEVEEESKKEEEEEIHAEESTIPANLERLWSFSCDLTKGLNVSSLAWNKTNPDLLAVGYGHFGFKEQKRGLACCWSIKNPMVTQTRIRSIFIWLLTKFS	soluble
MYSEERRRQIASLTAVEGRVNVTELAARFDVTAETIRRDLAVLDREGVVHRVHGGAVANQTFQTAEFSLDTRSRSASGAKNSIAHAALSYLPEAQGGLFLDAGTTTAALAELLAAQPFAKHWSIVTNSLSIALTLANSGLDEIQLLGGSVRAITQAVVGDTALRTLALMRADVAFIGTNALTIDHGLSTADSQEAAIKSAMITNAHKVVVLCDSTKMGTDYLVSFGSISDIDVIITDANAPESFVKALRDRDVEVIIALEHHHHHH	soluble
VPYKGYLIDLDGTIYQGKNRIPAGERFIKRLQERGIPYLLVTNNTTRTPEMVQSMLANQFHVETSIETIYTATMATVDYMNDMNRGKTAYVIGETGLKSAIAAAGYVEELENPAYVVVGLDSQVTYEMLAIATLAIQKGALFIGTNPDLNIPTERGLMPGAGALNALLEAATRVKPVFIGKPNAIIMNKSLEVLGIQRSEAVMVGDNYLTDIMAGIQNDIATILVTTGFTRPEEVPTLPIQPDHVLSSLDEWRL	soluble
MAEILRAENIKKVIRGYEILKGISLSVKKGEFVSIIGASGSGKSTLLYILGLLDAPTEGKVFLEGKEVDYTNEKELSLLRNRKLGFVFQFHYLIPELTALENVIVPMLKMGKPKKEAKERGEYLLSELGLGDKLSRKPYELSGGEQQRVAIARALANEPILLFADEPTGNLDSANTKRVMDIFLKINEGGTSIVMVTHERELAELTHRTLEMKDGKVVGEITRV	soluble
MNSPNILLDSFKIALVKKDSKQAFSLIERLSLEQIKSLDLDALLSLKEMIAQSIELLEKEKEELQLQMHKAKKIQKFLS	not soluble
QVQLVESGGGSVQAGGSLRLSCAASGFTYSRKYMGWFRQAPGKEREGVAAIFIDNGNTIYADSVQGRFTISQDNAKNTVYLQMNSLKPEDTAMYYCAASSRWMDYSALTAKAYNSWGQGTQVTVSSRGRHHHHHH	soluble
GHMSDLVTKFESLIISKYPVSFTKEQSAQAAQWESVLKSGQIQPHLDQLNLVLRDNTFIVSTLYPTSTDVHVFEVALPLIKDLVASSKDVKSTYTTYRHILRWIDYMQNLLEVSSTDKLEINHD	soluble
MEHTKKFKSLNLHGFDRSTEDYGKRPFVLTAKLLEDQKKAIYGCAFNQYAGIDEEQAVATVGGSFLHMYSVPIDINNIELQWSCNFPTDKSSKVEREESLFTVTWCYDTYEAENDRNPFKVVTGGTLGHIYVIDYVSRKLSNRLRSVGWEINDIRTCPANSNLIVCASSDQSIRIHHIRNEACLIVIGGLECHAGTILSVDWSTDGDFILSCGFDHQLMEWDLSVKQVKEHLERACKALHQDKINVLTQSQDIPYVSKGTMRKSAVSRNIPDKEEDQLLELHRELIPRPSCLLPIYTPSSVSTDMHSDYVDCIRFLIGTNYALSKGCGNEKAIHFWRFGPPKGEVENRIHGNVLRPKSCTTKFRTMNVPSGSAWFIKFAVDPRRRWLVCGGAGGSVMFFDLRNNEETNPTHTCSVGSRTVRQASFSTCGRFLVLVTDEGFVCRFDRVSASVDAKDLFLMSSPTSSKDYSSPKHSFMLTVDSNLQSDKKKTFLNVQSSSSAGSTKHCQIPMSKDEYFETRGKLDSVDVIDQFRQRQQ	not soluble
MGHHHHHHSHMALLVRVLRNQTSISQWVPVCSRLIPVSPTQGQGDRALSRTSQWPQMSQSQACGGSEQIPGIDIQLNRKYHTTRKLSTTKDSPQPVEEKVGAFTKIIEAMGFTGPLKYSKWKIKIAALRMYTSCVEKTDFEEFLLRCQMPDTFNSWFLITLLHVWMCLVRMKQEGRSGKYMCRIIVHFMWEDVQQRGRVMGVNPYILKKNMILMTNHFYAAILGYDEGILSDDHGLAAALWRTFFNRKCEDPRHLELLVEYVRKQIQYLDSMNGEDLLLTGEVSWRPLVEKNPQSILKPHSPTYNDEGL	not soluble
MKIIIIGGVAGGATTAARIRRTNEAAEIILLEKGKYISYANCGLPYYIGGVIKEREKLFVQTPEAFSTRFRVDVRTENEVIFIDRKRKTVTVRQSSGDTYEESYDKLLISTGASPVRPPLPGIDLNGIFTLRNVADTDRIKEYINSHAPRKAVVIGAGFIGLEMAENLHAQGAKVSIVEMGNQVMAPIDFSMASLVHQHLMDKGVNLYLEQAVASFERDGKGLKVIFKNGQSISADIVILSIGVRPETTLARAAELKIGEAGGIAVNDYLQTSDESIYAIGDAIEFRHPITGKPWLNYLAGPANRQGRIVADNIQGAHIPYEGAIGTSIAKVFDMTVASTGLPGKRLRQAEINYMSSTIHPSSHAGYYPDAMPMSIKITFDPKTGKLYGGQIVGYDGVDKRIDEIALVIKHEGTIYDLMKVEQAYAPPFSSAKDPVAVAGYVAENIITGKVQPVYWRQLRDIEMENNFLLDVRTPDEFSLNTLPGAVNIPLDELRDRLDELPKDKMIYTFCAVGLRGYLAYRILVQHGFEKVRNLSGGLKTYHAAAAPIILREESENEVPAQPNANIQQPADAQPQKTVSPVEAVKTIRVDACGLQCPGPILKMKKTMDSLVSGDRVEITSTDPGFPRDAAAWCNSTGNQLISKETAGGKSVVVIEKGEPKSCNIVTSCEGKGKTFIMFSDDLDKALATFVLANGAAATGQKVTIFFTFWGLNVIKKLHKPNVEKDIFGKMFGMMLPSSSRKLKLSKMSMGGIGGKMMRYIMNRKGIDSLESLRQQALENGVEFIACQMSMDVMGVKQEELLDEVTIGGVATYMERADNANINLFILEHHHHHH	not soluble
MGVKRKKMGKVAGFTEWTAEDLEAFRARWPIGTAQRLALELYQWTGARCVDVIRLGPQMVGRDGVLTYVQQKTGNPAHVPWTCPAFGLEEQRADLMRCLPVGSPVYMLTEYGKPRTQKGVSQWFSAAAREAGLESRTAHGLRKYRMNALAEHGASVLVMQSWVGHTTLLEVQEYTRRADRRRVISGGHPVKRDPAGAAAALEHHHHHH	soluble
RTDTIMVLHMPRTGEPTLLSIPRDSYVNVPGWGMDKANAAFTVGGPELLTQTVEEATGLRIDHYAEIGMGGLANMVDAVGGVEMCPAEPMYDPLANLDIQAGCQEFDGAAALGYVRTRATALGDLDRVVRQREFFSALLSTATS	not soluble
MGHHHHHHHHHHSSGHIEGRHMYTVMLDLKGRSVLVVGGGTIATRRIKGFLQEGAAITVVAPTVSAEINEWEAKGQLRVKRKKVGEEDLLNVFFIVVATNDQAVNKFVKQHIKNDQLVNMASSFSDGNIQIPAQFSRGRLSLAISTDGASPLLTKRIKEDLSSNYDESYTQYTQFLYECRVLIHRLNVSKSRKHELLTEIIDDQYRLSLVKQREFLQQIEKYK	soluble
MSLRPEFQGLQGGLFSSVKKADVGTAVLDLMANGVDMLCWADPFFPDPVLPEHISQAVIKSMENGSASHYTMPIGNPELKEKIALKLQRYNNLTVEAQRNILITPGSDSGLLFAMMPFINNDDEVLIHSPSYPSNFLNVELLGGKPISVELKAENNFQIDIKDFENKITEKTKMVILTNPNNPTGTVLRRESLQAIADFIIAHDLILVVDQAFEDAIFDEIEFISIASLPGMWERTVSVFSFSKGMGLSGFRVGYLVADAQIVDVLFGCTVNVVGATNTSSQAGMIAALDEPSFMGEYTQIFERRRKVVFEMMNAIPGVCMVMPESGFLSWIDISKLGTSTFICDYLLQHAHVMVNSGVPYGQGGEGYIRLVHGCYKDDEKLYAVLTRIQQALMQLAKEKGICHGEGHHHHHH	soluble
MRDNLVEQIISDVMNKQTDISPEAKTAANFAGCGITEFVGTALGHTIGLVIANVDNQLHEVMNIDKKYRSIGILGARTGAGPQIFAADEAIKATNSEIISIELARDTEGGGGHGCLIIFGASDVSDVRRAVEVALSEIERTMGDVYGSSAGHLEFQYTARASYALNKALGAPIGKSFGMTCASPAAIGLVIADAAAKSAVIDPVGYASPSQGTSFSNEVIFTFSGDSGAVRQAVIAAREVGLQLLSTLDPVEIKSTTTPYI	soluble
MAQNESPAEQLFAAIGLLRRHTRRRVGRPWPETPLTGSQVELVRLLRRRPGTSVAEAAAALGLAANTVSTLVRQLTDAGLVERVRDESDRRVARLALTDDARAQVERWRDRRNIEVAAAFDGLSAEDRKAIESAIPAITRLAGALHPDQAGPSDQEVVR	not soluble
MGSDKIHHHHHHGAGVSTGSKLPDFRGKQGVWTLQAEGKHAEGVDFQVARPGVSHKSILALHKAGYIKTIITQNVDGLDRKVGIPVEDLIEVHGNLFLEVCQSCFSEYVREEIVMSVGLCPTGRNCEGNKRTGRSCRGKLRDATLDWDTEISLNHLDRIRKAWKQTSHLLCIGTSLEIIPMGSLPLDAKSKGIKTTTINYQETAHEKIVETAIHADVKLILYSLCNALGVNVDLGDDLPDEVPIPLKIS	not soluble
GMKTQITTRDLVLEFIHALNTENFPAAKKRLNENFTFNGPMGHREGSERYMNDMEKMKFKYVVHKMFEEGNDVCLIYDINMNGKTIAASGLYHLEKGEITSLHVYFDPRPLFEE	soluble

Reference: the DeepSol protein solubility set
